# According to US20050142114A1:
# Assays:
# [1] = biological target: CD209 (DC-SIGN) on monocyte-derived dendritic cells (human) (UniProt Q9NNX6); test: flow cytometry, right shift of the whole histogram vs. control peak (FIG. 1)
# [2] = biological target: CD209 (DC-SIGN) on monocyte-derived dendritic cells (human) (UniProt Q9NNX6); test: flow cytometry; calcein signal of immunoliposomes relative to FITC signal of the mAb
# [3] = biological target: CD209 (DC-SIGN) on monocyte-derived dendritic cells (human) (UniProt Q9NNX6); test: flow cytometry, percent of MoDCs positive for calcein after monospecific anti-CD209 protein A immunoliposomes (FIG. 4A)
# UniProt Q9NNX6, sequence (Q9NNX6 whole entry): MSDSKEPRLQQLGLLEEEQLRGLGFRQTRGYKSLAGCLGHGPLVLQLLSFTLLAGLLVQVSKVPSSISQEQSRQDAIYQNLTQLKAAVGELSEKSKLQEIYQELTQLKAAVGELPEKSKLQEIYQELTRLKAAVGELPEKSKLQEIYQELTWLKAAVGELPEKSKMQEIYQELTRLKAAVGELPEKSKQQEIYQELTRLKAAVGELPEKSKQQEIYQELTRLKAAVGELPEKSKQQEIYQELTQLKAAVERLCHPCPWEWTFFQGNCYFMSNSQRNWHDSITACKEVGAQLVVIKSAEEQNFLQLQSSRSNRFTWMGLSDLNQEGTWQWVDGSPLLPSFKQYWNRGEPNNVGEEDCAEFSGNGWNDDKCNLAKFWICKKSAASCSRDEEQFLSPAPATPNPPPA
substance,measurement,setting,value
"CD209-specific mAb derived from clone 120507 (IgG2b), R&D Systems (antibody)",percent of cells targeted,[1],100%
same,TEILS (immunoliposomal net targeting efficacy),[2],110%
same,liposomal targeting efficacy,[3],83.3%
